Source: publication PMC10843481 (Structure (London, England : 1993), 2023)

Experiments:
[1] = target: 1TEL-GG-UBA as run in size exclusion chromatography with ubiquitin (human) (UniProt P41212); assay: SEC
crystal structure = target: the molecule itself; assay: crystal structure

| Molecule | percent binding [1] [%] | binding result (crystal structure) |
| --- | --- | --- |
| M1-linked-di-ubiquitin (from UniProt P0CG47 1-76; P0CG47 1-76) (natural protein) | 100 | – |
| 1TEL-GSGG-UBA (other, human) IRLPAHLRLQPIYWSRDDVAQWLKWAENEFSLSPIDSNTFEMNGKALLLLTKEDFRYRSPHSGDELYELLQHILGSGGELQRKIMEVELSVHGVTHQEAQTALGATGGDVVSAIRNLKVDQLFHLSSRSRADAWRILEHYQWDLSAASRYVLARP | – | binds |
| 1TEL-GG-UBA (other, human) IRLPAHLRLQPIYWSRDDVAQWLKWAENEFSLSPIDSNTFEMNGKALLLLTKEDFRYRSPHSGDELYELLQHILGGELQRKIMEVELSVHGVTHQEAQTALGATGGDVVSAIRNLKVDQLFHLSSRSRADAWRILEHYQWDLSAASRYVLARP | – | binds |

The next lines start with results.

| percent binding [1] [%] | Molecule | binding result (crystal structure) |
| --- | --- | --- |
| 100 | M1-linked-tetra-ubiquitin (from UniProt P0CG47 1-76; P0CG47 1-76; P0CG47 1-76; P0CG47 1-76) (natural protein) | – |
| 100 | M1-linked-tri-ubiquitin (from UniProt P0CG47 1-76; P0CG47 1-76; P0CG47 1-76) (natural protein) | – |
